Test results as given in patent publication US8969060B2, “Modified glucose dehydrogenase” (Ikeda Food Research Co., Ltd., priority 2011, dated 2015).
Changes are numbered by the printed parent chain. Numbers in names are those of the source.

B1: H341I: modified GLD: SEQ ID NO: 1 with substitution H341I (protein, listed as Aspergillus terreus)
chain: MLGKLSFLSALSLAVAAPLSNSTSAKYDYIVIGGGTSGLAVANRLSEDPNVNVLILEAGGSVWNNPNVTNVDGYGLAFGSDIDWQYQSVNQPYGGNLSQVLRAGKALGGTSTINGMAYTRAEDVQIDAWETIGNTGWTWKNLFPYYRKSENFTVPTKSQTSLGASYEAGAHGHEGPLDVAFTQIESNNLTTYLNRTFQGMGLPWTEDVNGGKMRGFNLYPSTVNLEEYVREDAARAYYWPYKSRPNLHVLLNTFANRIVWDGEAHDGHITASGVEITSRNGTVRVINAEKEVIVSAGALKSPAILELSGIGNPSVLDKHNIPVKVNLPTVGENLQDQVNSIMDASGNTSISGTKAVSYPDVYDVFGDEAESVAKQIRANLKQYAADTAKANGNIMKAADLERLFEVQYDLIFKGRVPIAEVLNYPGSATSVFAEFWALLPFARGSVHIGSSNPAEFPVINPNYFMLDWDAKSYVAVAKYIRRSFESYPLSSIVKESTPGYDVIPRNASEQSWKEWVFDKNYRSNFHPVGTAAMMPREIGGVVDERLNVYGTTNVRVVDASVLPFQVCGHLVSTLYAVAERAADLIKADAGRR
modifications: SIGNAL (1)..(19)
B2: H341K: modified GLD: SEQ ID NO: 1 with substitution H341K (protein, listed as Aspergillus terreus)
chain: B1 chain with I341K
modifications: SIGNAL (1)..(19)
B3: H341M: modified GLD: SEQ ID NO: 1 with substitution H341M (protein, listed as Aspergillus terreus)
chain: B1 chain with I341M
modifications: SIGNAL (1)..(19)
B4: H341N: modified GLD: SEQ ID NO: 1 with substitution H341N (protein, listed as Aspergillus terreus)
chain: B1 chain with I341N
modifications: SIGNAL (1)..(19)
B5: H341P: modified GLD: SEQ ID NO: 1 with substitution H341P (protein, listed as Aspergillus terreus)
chain: B1 chain with I341P
modifications: SIGNAL (1)..(19)
B6: H341Q: modified GLD: SEQ ID NO: 1 with substitution H341Q (protein, listed as Aspergillus terreus)
chain: B1 chain with I341Q
modifications: SIGNAL (1)..(19)
B7: H341R: modified GLD: SEQ ID NO: 1 with substitution H341R (protein, listed as Aspergillus terreus)
chain: B1 chain with I341R
modifications: SIGNAL (1)..(19)
B8: H341S: modified GLD: SEQ ID NO: 1 with substitution H341S (protein, listed as Aspergillus terreus)
chain: B1 chain with I341S
modifications: SIGNAL (1)..(19)
B9: H341V: modified GLD: SEQ ID NO: 1 with substitution H341V (protein, listed as Aspergillus terreus)
chain: B1 chain with I341V
modifications: SIGNAL (1)..(19)
B10: H341Y: modified GLD: SEQ ID NO: 1 with substitution H341Y (protein, listed as Aspergillus terreus)
chain: B1 chain with I341Y
modifications: SIGNAL (1)..(19)
B11: D343A: modified GLD: SEQ ID NO: 1 with substitution D343A (protein, listed as Aspergillus terreus)
chain: B1 chain with I341H, D343A
modifications: SIGNAL (1)..(19)
B12: D343E: modified GLD: SEQ ID NO: 1 with substitution D343E (protein, listed as Aspergillus terreus)
chain: B1 chain with I341H, D343E
modifications: SIGNAL (1)..(19)
B13: D343F: modified GLD: SEQ ID NO: 1 with substitution D343F (protein, listed as Aspergillus terreus)
chain: B1 chain with I341H, D343F
modifications: SIGNAL (1)..(19)
B14: D343H: modified GLD: SEQ ID NO: 1 with substitution D343H (protein, listed as Aspergillus terreus)
chain: B1 chain with I341H, D343H
modifications: SIGNAL (1)..(19)
B15: D343I: modified GLD: SEQ ID NO: 1 with substitution D343I (protein, listed as Aspergillus terreus)
chain: B1 chain with I341H, D343I
modifications: SIGNAL (1)..(19)
B16: D343K: modified GLD: SEQ ID NO: 1 with substitution D343K (protein, listed as Aspergillus terreus)
chain: B1 chain with I341H, D343K
modifications: SIGNAL (1)..(19)
B17: D343L: modified GLD: SEQ ID NO: 1 with substitution D343L (protein, listed as Aspergillus terreus)
chain: B1 chain with I341H, D343L
modifications: SIGNAL (1)..(19)
B18: D343M: modified GLD: SEQ ID NO: 1 with substitution D343M (protein, listed as Aspergillus terreus)
chain: B1 chain with I341H, D343M
modifications: SIGNAL (1)..(19)
B19: D343Q: modified GLD: SEQ ID NO: 1 with substitution D343Q (protein, listed as Aspergillus terreus)
chain: B1 chain with I341H, D343Q
modifications: SIGNAL (1)..(19)
B20: D343R: modified GLD: SEQ ID NO: 1 with substitution D343R (protein, listed as Aspergillus terreus)
chain: B1 chain with I341H, D343R
modifications: SIGNAL (1)..(19)
B21: D343S: modified GLD: SEQ ID NO: 1 with substitution D343S (protein, listed as Aspergillus terreus)
chain: B1 chain with I341H, D343S
modifications: SIGNAL (1)..(19)
B22: D343V: modified GLD: SEQ ID NO: 1 with substitution D343V (protein, listed as Aspergillus terreus)
chain: B1 chain with I341H, D343V
modifications: SIGNAL (1)..(19)

test: Relative enzymatic activity of GLD (DCIP/1-m-PMS, plate reader, yeast culture supernatant) with proflavin hydrochloride present; type: biochemical; conditions: site-specific mutants, inhibitor final concentration 1 mM
Protocol: (§1) The susceptibility defined in the present specification is evaluated in terms of a relative activity that is determined in a system wherein the inhibitor coexists or not. The relative activity is derived from a relative value (%) of an enzymatic activity (a sample value) obtained with the addition of the inhibitor in the determination of the enzymatic activity described in the present specification as compared with an enzymatic activity (a blank value) as “100%” obtained without the addition of the inhibitor in the same determination. Thus, the higher the relative activity is, the less the susceptibility to the inhibitor is (or the more the susceptibility to the inhibitor is reduced), vice versa.
(§2) The enzymatic activity is determined in the following manner in Examples 3 and 6 wherein a plate reader (Japan Molecular Device Corporation, SpectraMax Plus384) is used. Thus, culture supernatant that had been diluted in advance with an appropriate magnification is added to a 96-well microplate with an amount of 100 μl per well. A reagent for the determination of the enzymatic activity comprising phosphate buffer (pH 7.0), 1.0 M D-glucose, 3 mM DCIP, 3 mM 1-m-PMS and methanol with a volume ratio of 0.1:1:0.14:0.2:0.06 is added to the 96-well microplate with an amount of 100 μl per well, and a change in the absorbance of DCIP at 600 nm (ΔABS/min) is then determined. The enzymatic activity can be calculated by conversion in proportion to a change in the absorbance of an enzyme solution for which the enzymatic activity has already been known by the above-mentioned activity determination procedure using the spectrophotometer.
(§3) In the following examples, a value of the enzymatic activity determined by the spectrometer or plate reader using the above reagent composition is considered as a blank value. On the other hand, a sample value is determined using a methanol solution comprising the inhibitor such as 1,10-phenanthroline or proflavin hydrochloride at a final concentration of 1 mM instead of the methanol. Enzymatic activity (unit/mL)=(−ΔABS/16.3)×3.0/0.05×(Dilution ratio of enzyme) [Equation 1]

Molecule	Relative Activity [%] Proflavin hydrochloride [%]
B1	64.4
B2	61.3
B3	71.4
B4	81.5
B5	43.2
B6	68.1
B7	69.5
B8	76.6
B9	71.4
B10	77.8
B11	51.2
B12	58.2
B13	65.7
B14	62.8
B15	71.5
B16	51.8
B17	73.2
B18	52.9
B19	47.0
B20	37.9
B21	48.3
B22	67.7

test: Relative enzymatic activity of GLD (DCIP/1-m-PMS, plate reader, yeast culture supernatant) with 1,10-phenanthroline present; type: biochemical; conditions: site-specific mutants, inhibitor final concentration 1 mM
Protocol: as §1, §2, §3
Into each well of a 96-well microplate (manufactured by Nunc, Inc.), a YPD medium containing 125 μL of 1.0% (w/v) yeast extract (manufactured by BD), 2.0% (w/v) tryptone (manufactured by BD), 2.0% (w/v) glucose (manufactured by Wako Pure Chemical Industries, Ltd.) was dispensed, and the transformant colonies obtained in Example 2 were inoculated thereinto one by one.
After shaking culture at 30° C. and 1,000 rpm for 24 hours, the culture mixture was centrifuged and the supernatant was collected.
According to the above-mentioned method for the determination of enzymatic activity, a blank value and a sample value were determined using a plate reader, and the relative activity (%) was obtained by dividing the sample value by the blank value.

Molecule	Relative Activity [%] 1,10-Phenanthroline [%]
B1	97.4
B2	99.2
B3	95.4
B4	93.3
B5	88.3
B6	97.5
B7	78.6
B8	90.4
B9	96.1
B10	93.6
B11	72.5
B12	61.4
B13	95.3
B14	87.5
B15	88.6
B16	95.9
B17	100.5
B18	91.2
B19	86.2
B20	80.7
B21	70.1
B22	96.7
